The supplement of paper PMC9170038

Tested on: MS2 coat protein
Test: apparent KD of MS2 coat protein; higher = weaker reporter binding
Conditions: Eterna round: R107
Summary of the method: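 With or without constant ligand, designed RNA switches in 100 mM Tris-HCl pH 7.5, 80 mM KCl and 4 mM MgCl2 were titrated with SNAP-549-labelled MS2 coat protein. Concentrations went up in twofold steps from 0.7 or 1.5 nM to 3 µM. The switches had been transcribed on-chip from Illumina sequencing clusters, and apparent KD is the per-design median of normalised cluster binding-curve fits.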

[1] = input ligand: theophylline 20 uM
[2] = input ligand: theophylline 2 mM
[3] = input ligand: tryptophan 2.4 mM

Row | Sequence | apparent KD of MS2 coat protein (input ligand: arginine 13.2 mM) [nM] | apparent KD of MS2 coat protein [1] [nM] | apparent KD of MS2 coat protein [2] [nM] | apparent KD of MS2 coat protein (input ligand: none) [nM] | apparent KD of MS2 coat protein [3] [nM]
1 | GGAUUCAACUCGGCCGCCACUGGUGAUCCUAAUGUACAUGAGGAUCACCCAUGUACAUGAGAAUAUAGGACCGGGAGAUAAGUUA [Tryptophan B V3 (+3U)] | 23.2 | 33.5 | 32.2 | – | –
2 | GGCACGUACGGAAGGAGCGACUGUUCGACGUGGGUACAUGAGGAUCACCCAUGUCUCCGCAGUCAGGUAGGUCGCCGUACGUGCC [EAB NP+V+V2 #21 +-Same Structure] | 34.3 | 63.6 | 49.8 | 42.7 | 38.6
3 | UCGGACAUGAGGAUCACCCAUGUAAAUCCUCGAGGACCGGUACGGCCGCCACUCGAACGAGUGGCGCGCGAGCGCGCGCUCGCGC [aGa] | 20.4 | 67.7 | 62.5 | 43.8 | 36.9
4 | AGGACGGUCGGAAGGAGCGGUACAUGAGGAUCACCCAUGUACUUAUGGGCAUCCGUAGAGUGCCAGGUAGGUCGCCGAUUGCGGG [XArg-B11] | 17.2 | 29 | 21.8 | 33 | 34.1
5 | AGAUUCGACACGGCCGCCACUUGUGGUGGAUUAUCCUAUGUAAGACAUGAGGAUCACCCAUGUACAAGGACCGGGUGUUGAGUCU [XTryp B #22] | 108 | 336 | 385 | – | –
6 | AAAGGAAGGUAAAAUAAAACUACAUGUGAAGGAGCGCCCGAAAGGGCAGGUAGGUCGCACAUGAGGAUCACCCAUGUCCUUCCAA [ArgEX 6 #SwitchBubble] | 206 | 315 | 439 | 319 | 293
7 | CCUCAAUCGUCGGCCGCCACUGAAUCAUGCGGAUACAUGAGGAUCACCCAUGUGGGUGUGGUACGCAGGACCGGGACAAGACCCG [#14 Same State - Tryptophan B] | 154 | 337 | 860 | 203 | 152
8 | UUUAACAAGAACGUCCUGAGUGACAAGCUACGAGGACCGGUACGGCCGCCACUCGUACCAAAACAUGAGGAUCACCCAUGUUAAA [theeternabot_exclusion_MS2_Trp_A_44] | 13.4 | 19.3 | 21.1 | – | –
9 | UACAUGAGGAUCACCCAUGUAUGAAUAGAUACCAGAUAAAAUAAGGUCCCUUGGCAGCUAGUGAAUAAAGGGUGGGUAAAAUAAU [Exclusion Theophyline A GF 1] | 11.3 | 12.3 | – | – | 9.24
10 | GCCAUCGGCGGAAGCCGAUGGGAUACAGAAGGAGCGUGGAUUAACACAGGUAGGUCGCUGGACAUGAGGAUCACCCAUGUAAUAG [SSAA #8] | 17.4 | 27.2 | 32.4 | 26.2 | 21.7
11 | UGCUGACAAGGACAUGGAUGAUCAGCUGAUACCAGCCUGGAAACAGGCCCUUGGCAGCAGCACAUGAGGAUCACCCAUGUAAUAA [(T)'-(M)'-(T1)-(T2)-(M1)-(M2)_Design3(Mismatches)] | 28.4 | 78.1 | – | – | 27.2
12 | CUAUGUAUAUAUGCGAAAGCUACGUGUUGACGAGGACCGGUACGGCCGCCACUCGACAUGAGGAUCACCCAUGUAAUAUAUAUAG [BMP_BFE] | 102 | 173 | 300 | – | –
13 | CCUAUCCAGUCGGCCGCCACUGAAAACAGUGGGUGAACAUGAGGAUCACCCAUGUAAUAAUAAAACAGGACCGGGACUGUAUAGG [Ex Tryptophan B 22] | 290 | 458 | 882 | 452 | 369
14 | UCGGGAACAUGAGGAUCACCCAUGUCAGAAGGAGCGCUGAGAGAAGCAGGUAGGUCGCUGACGUAGGAGCUCUCUUCCUAUACGC [Exclusion - Arginine A] | 23.3 | 40.1 | 35.4 | 30.6 | 25.4
15 | AAACAUGAGGAUCACCCAUGUUCAAUAGAUACCAGUGAUACGGUGCACCCUUGGCAGCUGUUGCUGAGUGAUGGUUCCCUCGGUA [#24 SameState-TheophyllineA] | 19.9 | 32.9 | – | – | 27.1
16 | UCGCGAGAGGGAAGGAGCGUCAGCUGAGUCACAUGAGGAUCACCCAUGUCGCACAUAGUGUGACAGGUAGGUCGCCCUCCGCCCU [Leinticees] | 99.6 | 248 | 192 | 134 | 157
17 | UGACAUUGCUCAGAUACCAGACAUGAGCAUCAGCCAUGUACCAAGAGUACAUAUUAAAAUGUCCCUUGGCAGCUGAGCAAUGUCU [Mod of Eli's TheoBX5 #AlternateMS2 v1] | 15.2 | 18.7 | 166 | 11 | 11.8
18 | ACGAUACGACAUGAGGAUCACCCAUGUGAUACCAGCGUGGAAACACGCCCUUGGCAGCACAAAUACUCCAAUAACGUAUCGAAAA [MAT - Exclusion Theophlline A - Mod of Eli - D8] | 139 | 211 | – | – | 260
19 | AAAGCCUUGCCCGGUGUUCCGAAAGUGGAAGGAGCGCACAUUGGUGCAGGUAGGUCGCCACAUGAGGAUCACCCAUGUCUAGGCU [Isbeat] | 42.5 | 107 | 135 | 34.1 | 11.3

Row | Sequence | apparent KD of MS2 coat protein (input ligand: arginine 13.2 mM) [nM] | apparent KD of MS2 coat protein [1] [nM] | apparent KD of MS2 coat protein [2] [nM] | apparent KD of MS2 coat protein (input ligand: none) [nM] | apparent KD of MS2 coat protein [3] [nM]
20 | UUUAAGAACCGAAGGAGCGCCAGAAAUAAGAACGCUACAUGAGGAUCACCCAUGUAAUAAGGGCAGGUAGGUCGCGGAAUUUAAA [last] | 17.9 | 33.4 | 24.7 | 21.2 | 21.4
21 | GACCGGUUAUAGCGCGAUUGUCUUGUGGAAGGAGCGCAGAGGGCUGCAGGUAGGUCGCCACAUGAGGAUCACCCAUGUCAGGAAA [Biraesge] | 28.1 | 32.2 | 35.5 | 19.2 | 19.7
22 | AACAGUAUUAUAGAUACCAGCAGGUCAUAAGACAUGAGGAUCACCCAUGUGAAUGAGGUAUGCCCUUGGCAGCUAUGAGGUCCUC [theeternabot_sameState_MS2_Theo_B_18] | 113 | 185 | – | – | 126
23 | UUGACAUGAGGAUCACCCAUGUCAAAGGCACGAGGACCGGUACGGCCGCCACUCGUGGUCUAUGGCUGGUGGACUCGUGUCUCGG [Soisusdira] | 12.2 | 16 | 16.8 | 12 | 10.8
24 | UUAUAUUCUCAAUCGCCAUGUGCUUUAGAUACCAGUCUGAUAAAUGACCCUUGGCAGCUAGAGACAUGAGGAUCACCCAUGUCUU [theeternabot_exclusion_MS2_Theo_A_8] | 11.3 | 13.9 | – | – | 11.2
25 | AGUAGACACGCGGCCGCCACUUGAGGAUCACCCAGGUGGUGUGUACUUGAAACAAGUGCACAAUCAAGGACCGGGCGUGUCUACA [Omei Tryp B SS D v1] | 12.6 | 17.4 | 15.1 | 13.5 | 83.7
26 | CCUUUGUAGCGAAGGAGCGCGUGACUUAGCUCAUGUAAACAUGAGGAUCACCCAUGUGACACGCAGGUAGGUCGCGCUAUGAAGG [Arg B Ex t3] | 22.2 | 28.7 | 23.5 | 22.3 | 21.9
27 | AGCCUAUUACAUGAGGAUCACCCAUGUGAUACCAGUCAGGAAACUGACCCUUGGCAGCGCAUGAGGAUCACCCAUGCGCGAGGCA [Omei Theo A Exc A v4] | 10.1 | 12.9 | – | – | 10.6
28 | GGAAACCCGACGGCCGCCACUAACGGUCUCAAAAGAGGUUGAACACAUGAGGAUCACCCAUGUAAUAGGACCGGGUCGUGUGAAA [Design 1] | 17.9 | 24.9 | 19.4 | – | –
29 | UAACAUGAGGAUCACCCAUGUUUGAAGGAACGAGGACCGGUACGGCCGCCACUCGACGAGUGGAUGAGAAGUGGGCUUGUGUGCU [Same State Trp A GF9] | 13.7 | 16.3 | 13 | 15.5 | 16.5
30 | UGCAUGAGGAUCGCCCGUGUCGAGCCGGUGCGAGGACCGGUACGGCCGCCACUCGAGACAUGAGGAUCACCCAUGUUGUGCGUGA [Exclusion Tryptophan A GF24] | 27.9 | 79.5 | 56.4 | – | –
31 | AACAUGAGGAUCACCCAUGUCCUCGUGUUCCGAGGACCGGUACGGCCGCCACUCGGUCCUCGCGAGGAUGGUCAAAGACUAUCCA [Omei Trp A SS B v3] | 724 | 378 | 953 | – | –
32 | AAACUUCGCAUAGGAAAACUAUGUGAAGAUCGAGGACCGGUACGGCCGCCACUCGUCCUCAACAUGAGGAUCACCCAUGUAAUAA [Mat - Exclusion - Trytophan A - D3] | 22.8 | 23.7 | 23 | – | –
33 | UGGAGUAGGACGGCCGCCACUAUACAAUGUGUAUACAUGAGGAUCACCCAUGUAAUCCUCGGAGAUAGGACCGGGUCAAGUUGUG [X-tryptB-ms2@35] | 39.4 | 85.4 | 59.8 | – | –
34 | AGUUUAGACACGGCCGCCACUCGUGACAGAUUUCGCAGUGGUCUACAUGAGGAUCACCCAUGUCUGAGGACCGGGUGUUGAGUUU [XTryp B #8] | 76.3 | 177 | 194 | – | –
35 | UAGAUAGAGGGAAGGAGCGCAGUAACAUAACAUGAGGAUCACCCAUGUAAGAAAUUAAUAAUGCAGGUAGGUCGCCCAAGAUGAU [#10 Same State - Arginine B] | 12.4 | 17 | 15.1 | 13.6 | 13.9
36 | GCUAGUGGCAGAAGGAGCGGCAUACUUGCAAGUGACAUGAGGAUCACCCAUGUAAGGGAAUGCCAGGUAGGUCGCUGCCACUAGC [EAB NP+V+V2 #1 +-Same Structure] | 34.9 | 54.5 | 38.7 | 31.7 | 28.5
37 | AUAACAUGAGGAUCACCCAUGUAGAGUGAUACCAGACUAUGUAAUGUCCCUUGGCAGCACAAGUAAAGUUAUAAAUAAUGAUAGA [JR_SSTheophyA_Sub001] | 89.3 | 126 | – | – | 136
38 | UCGCUCGCCGGAAGGCGAGCGAGUUGCGAUACCAGCCCGGAAACGGGCCCUUGGCAGCGCACAUGAGGAUCACCCAUGUCAUGUU [#1 Exclusion - Theophylline A Attempt #6 (HarryS)] | 24.3 | 27.5 | – | – | 18.3
